The text below walks through data of patent CN110305214A.

Bounds are passed on as bounds.

For the assay, the target named is 人CD47 (human CD47) (human) (UniProt Q08722). The assay can be described thus: FACS competition on CHOK1 cells stably transfected with human CD47; competitor 1 μg/ml human SIRPα-His.
UniProt Q08722, sequence (Q08722 19-323): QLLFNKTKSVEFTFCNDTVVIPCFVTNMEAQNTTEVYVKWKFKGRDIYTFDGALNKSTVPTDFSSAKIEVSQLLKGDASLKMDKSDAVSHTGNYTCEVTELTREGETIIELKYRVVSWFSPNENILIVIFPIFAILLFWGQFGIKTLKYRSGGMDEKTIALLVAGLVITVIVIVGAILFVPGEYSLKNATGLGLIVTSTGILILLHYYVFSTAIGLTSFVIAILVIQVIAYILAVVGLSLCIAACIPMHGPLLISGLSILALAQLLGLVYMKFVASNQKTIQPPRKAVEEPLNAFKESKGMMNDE

B1: W3452-1.164.16-z11-IgG1K (antibody, V domains shown)
VH: QVQLQESGPGLVKPSETLSLTCTVSGFSLTNYHVYWIRQPPGKGLEWIGVMWNHGDTSYNSPLKSRVTISVDTSKSQFSLKLSSVTAADTAVYYCARGGYVPDYWGQGTMVTVSS
VL: DIVMTQSPLSLPVTPGEPASISCRSSQSLVHSNAKTYLHWYLQKPGQSPQLLIYRVSNRFSGVPDRFSGSGSGTDFTLKISRVEAEDVGVYYCLQTTHFPYTFGQGTKLEIK
B1: the 阻断率 is > 90%.

B2: W3452-2.683.2-z27-IgG1L (antibody, V domains shown)
VH: EVQLVESGGGLVQPGRSLRLSCAASGFTFSTYGMAWVRQAPGKGLEWVSSISTSGGSTYYRDSVQGRFTISRDNAKSSLYLQMNSLRAEDTATYYCTTKGGRTYRLAYWGQGTLVTVSS
VL: SYELMQPPSVSVSPGQTARITCSGIELSNKYAHWYQQKPGQAPVEVMYKDSERPSGIPERFSGSRSGTTVTLTISGVQAEDEADYYCLSTNSDDDLPVFGGGTKLTVL
Turning to B2, the 阻断率 is > 90%.

B3: W3452-2.683.2-z27-IgG4PE,L (antibody, V domains shown)
VH: B2 VH
VL: B2 VL
As for B3, the 阻断率 was > 90%.
